{"source": "paper PMC5871880", "about": "“Structural insights into the RNA methyltransferase domain of METTL16” (Scientific Reports, 2018)", "biological_target": "the molecule itself", "test": "SEC; analytical SEC on Superdex 200 10/300 GL; samples ~21 µM in 100 µl; 25 mM HEPES pH 7.5, 100 mM KCl, 50 mM NaCl, 1 mM TCEP, 1 mM MgCl2; molecular weights from a standard curve", "data": [{"protein": "human methyltransferase-like protein 16 (METTL16), residues 1-562 (enzyme, Ser-Asn-Ala linker encoded in the pMCSG68 vector, between the TEV protease cleavage site and residue 1; METTL16, human, UniProt Q86W50, residues 1-562; also called full-length METTL16; source: E. coli BL21 Gold, purified (HisTrap HP, TEV cleavage, SEC); not shown: His6, N-terminal, cleaved) SNAMALSKSMHARNRYKDKPPDFAYLASKYPDFKQHVQINLNGRVSLNFKDPEAVRALTCTLLREDFGLSIDIPLERLIPTVPLRLNYIHWVEDLIGHQDSDKSTLRRGIDIGTGASCIYPLLGATLNGWYFLATEVDDMCFNYAKKNVEQNNLSDLIKVVKVPQKTLLMDALKEESEIIYDFCMCNPPFFANQLEAKGVNSRNPRRPPPSSVNTGGITEIMAEGGELEFVKRIIHDSLQLKKRLRWYSCMLGKKCSLAPLKEELRIQGVPKVTYTEFCQGRTMRWALAWSFYDDVTVPSPPSKRRKLEKPRKPITFVVLASVMKELSLKASPLRSETAEGIVVVTTWIEKILTDLKVQHKRVPCGKEEVSLFLTAIENSWIHLRRKKRERVRQLREVPRAPEDVIQALEEKKPTPKESGNSQELARGPQERTPCGPALREGEAAAVEGPCPSQESLSQEENPEPTEDERSEEKGGVEVLESCQGSSNGAQDQEASEQFGSPVAERGKRLPGVAGQYLFKCLINVKKEVDDALVEMHWVEGQNRDLMNQLCTYIRNQIFRLVAVN", "values": [{"measurement": "stoichiometry N", "result": 2}]}]}
